Measured values: US20160139137

Key:
[1] = tested on: T1, Pro-active peptide (NH2-Cys-Lys-Arg-Val-Lys-TAMRA, SEQ ID NO: 2)
T1 sequence: CKRVK

[2] = tested on: T2, In-active peptide (NH2-Cys-Lys-Pro-Val-Lys-TAMRA, SEC ID NO: 3)
T2 sequence: CKPVK

Trypsin (13.000-20.000 units/mg)
fluorescence emission of QD660@SiO2@QD540@SiO2 nanoparticles at 25 µg/L versus 350 µg/L trypsin [1]: Increasing the enzyme concentration led to faster recovery of the original emission at 540 nm | fluorescence emission spectra of the one-colour QD540@SiO2 system after incubation with trypsin (loss of FRET on peptide cleavage) [1]: The spectroscopic profiles further demonstrated the existence of FRET processes between the QD540@SiO2 nanospheres and the “pro-active” TAMRA-labelled peptide | ratio of PL emission peaks I540/I660 during enzymatic digestion for 120 minutes at 25-350 µg/L trypsin [1]: There was a direct relationship between the enzymatic digestion rate and the enzyme concentration | fluorescence emission spectra of the one-colour QD540@SiO2 system after incubation with trypsin [2]: the control sample with the “in-active” QD540@SiO2 system, as expected, did not show any significant change in the fluorescence emission
